The target of the assay is mTurquoise-Tub1p (S. cerevisiae) (UniProt P09733). Kind of assay: FRET or BRET; sensitized emission FRET in living S. cerevisiae cells by confocal microscopy; mTurquoise donor, YFP acceptor; FRET index corrected for donor and acceptor bleed through and for the level of the donor (relative FRET index). In general terms: BRET reads energy transfer from a luciferase to a nearby fluorophore.
Sequence of UniProt P09733 (P09733 whole entry): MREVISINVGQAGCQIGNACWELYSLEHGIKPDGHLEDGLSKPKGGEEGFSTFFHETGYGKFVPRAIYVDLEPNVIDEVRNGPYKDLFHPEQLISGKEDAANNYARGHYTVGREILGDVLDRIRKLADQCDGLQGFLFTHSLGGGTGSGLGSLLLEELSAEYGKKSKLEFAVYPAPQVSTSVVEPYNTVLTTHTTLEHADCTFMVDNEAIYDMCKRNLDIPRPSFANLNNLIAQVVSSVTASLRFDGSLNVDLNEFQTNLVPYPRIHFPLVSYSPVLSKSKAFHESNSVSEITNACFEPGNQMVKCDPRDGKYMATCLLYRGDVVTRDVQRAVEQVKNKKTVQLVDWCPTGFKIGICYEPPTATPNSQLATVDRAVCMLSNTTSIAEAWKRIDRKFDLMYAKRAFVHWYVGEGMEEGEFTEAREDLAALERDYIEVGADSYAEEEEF

Regarding “YFP-VirE2 (from UniProt P0A3W8 1-533) (natural protein)”, the relative FRET index is 11.9.

These data come from paper PMC3937733.
